One data set addresses EcSSB (Escherichia coli, UniProt P0AGE0 P0AGE0:2-178). Briefly: EMSA; 25 nM DNA, 3.3 nM SSB tetramer, 20 mM HEPES pH 7.5, 100 mM NaCl; unaffected by CheSS19, MCI13E, MCI13F. As to conditions: tags: Enzymatics, Beverly MA; chain copies: 4 stated; label: 5'-32P. As for the experimental part: Referring now to FIG. 6B. CheSS19 titration in EcSSB DNA-binding reactions. CheSS19 (0, 25, 50, 100, and 200 μM) was pre-incubated with EcSSB and binding reactions were carried out. Referring now to FIG. 6C. Titration of MCI13E and MCI13F in EcSSB DNA-binding reactions. Concentrations of MCI13E/F used were: 0, 25, 50, 100, and 200 μM. In all panels, the 'Free' ssDNA is indicated with an arrow and the 'Bound' ssDNA is indicated by brackets. All reactions were performed in the same order and manner as the RPA binding reactions. EcSSB binding was unaffected by CheSS19 and the MCI13E and MCI13F compounds (FIGS. 6A and B).
EMSAs were performed similarly to those for the RPA constructs, with the following exceptions. Reactions contained 25 nM of 5'-[^32P]-labeled 3Pc3 ssDNA and 3.3 nM (assuming homotetramer formation) SSB protein (Enzymatics, Beverly, Mass.). Reactions (20 μL) were carried out in 20 mM HEPES, pH 7.5, 1 mM DTT, 0.01% NP-40, 100 mM NaCl, and resolved by 6% native polyacrylamide gel electrophoresis at 25 mA for 2 hours. Gels were dried and quantified via phosphorimager analysis and ImageQuant software (Molecular Dynamics).

For data set [1], the target named is T1, RPA heterotrimer (p70/p34/p14, full-length) (Homo sapiens, UniProt P27694;P15927;P35244 P27694:1-616,P15927:1-270,P35244:1-121). Briefly: EMSA; 12.5 nM DNA; binding inhibited by MCI13E, MCI13F and CheSS19. Conditions: tags: untagged; label: 5'-32P.
For data set [2], the target named is T2, RPA p70 DBD-A/B (Homo sapiens, UniProt P27694 P27694:181-422).
T2 chain: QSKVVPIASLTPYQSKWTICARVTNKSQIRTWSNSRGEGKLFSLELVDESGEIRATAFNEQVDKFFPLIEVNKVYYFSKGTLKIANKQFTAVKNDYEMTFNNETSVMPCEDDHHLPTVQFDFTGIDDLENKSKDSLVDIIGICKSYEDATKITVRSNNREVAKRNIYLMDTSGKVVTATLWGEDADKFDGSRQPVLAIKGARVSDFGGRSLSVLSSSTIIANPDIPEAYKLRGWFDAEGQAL
Briefly: FP; 20 nM DNA; 10 mM HEPES pH 7.2, 100 mM NaCl; inhibited irreversibly by CheSS19. As to conditions: tags: His (pET15b, nickel-NTA purified); label: fluorescein (F). As for the experimental part:
In an experiment reported herein, DBD-A/B was incubated with CheSS 19 and then the reaction mix dialyzed overnight to remove dissociable inhibitor.
Referring now to FIG. 3D. Bar graph showing results of fluorescence polarization analysis of CheSS19 inactivated RPA DBD-A/B. Referring now to FIG. 3D, RPA DBD-A/B was pre-incubated with vehicle (1% DMSO) or CheSS19 (1pmol in 1% DMSO) for 30 minutes at 37° C. Following incubation, the reaction mix was dialyzed versus H1 buffer overnight at 4° C. The protein was recovered and DNA binding activity measured by FP analysis of binding to an F-dT12 substrate was performed as described in "Methods". Bar 1, DNA control, Bar 2, control vehicle treated DBD-A/B, Bar 3, Chess19 treated DBD-A/B. The data represent the mean and range of two independent experiments.
Fluorescence polarization experiments were preformed as previously described (21). SMIs were diluted in H1 buffer (10 mM HEPES, pH 7.2, 1 mM DTT, 0.01% NP-40 and 100 mM NaCl) and the final DMSO concentration was kept below 1%.

Data set [3] concerns the target T1, RPA heterotrimer (p70/p34/p14, …). Description: EMSA; inhibited irreversibly by MCI13E. As to conditions: tags: untagged; label: 5'-32P. As for the experimental part:
Considering the differential inhibition observed between the anhydride and halo esters with respect to specificity, experiments were carried out to determine if the isoborneol halo-esters inhibited full-length RPA in an irreversible fashion. Full-length RPA was mixed with MCI13E or vehicle control and the reaction mixtures were then dialyzed overnight. Referring now to FIG. 5. Gel showing irreversible inactivation of full-length heterotrimeric RPA by MCI13E. Incubation of RPA with MCI13E, dialysis and recovery was performed as described for FIG. 3. DNA binding activity of the resulting protein was assessed by EMSA using a 5'-[^32P]-ss 34-base DNA as described in "Methods". Lanes 1-4 pre-dialysis, lanes 5 and 6 post dialysis. […] In fact, the degree of inhibition was similar to that observed for the MCI13E treated RPA before dialysis (FIG. 5 lanes 3 and 4). […] This activity is consistent with MCI13E and F and their reaction with RPA serving as a pharmacodynamic marker of RPA inhibition or as a biomarker for RPA expression and activity.

Data set [4] addresses T2, RPA p70 DBD-A/B. Description: EMSA; not inhibited by MCI13E or MCI13F. As to conditions: tags: His (pET15b, nickel-NTA purified); label: 5'-32P.

T1 sequence (P27694 whole entry, chain 1 of 3): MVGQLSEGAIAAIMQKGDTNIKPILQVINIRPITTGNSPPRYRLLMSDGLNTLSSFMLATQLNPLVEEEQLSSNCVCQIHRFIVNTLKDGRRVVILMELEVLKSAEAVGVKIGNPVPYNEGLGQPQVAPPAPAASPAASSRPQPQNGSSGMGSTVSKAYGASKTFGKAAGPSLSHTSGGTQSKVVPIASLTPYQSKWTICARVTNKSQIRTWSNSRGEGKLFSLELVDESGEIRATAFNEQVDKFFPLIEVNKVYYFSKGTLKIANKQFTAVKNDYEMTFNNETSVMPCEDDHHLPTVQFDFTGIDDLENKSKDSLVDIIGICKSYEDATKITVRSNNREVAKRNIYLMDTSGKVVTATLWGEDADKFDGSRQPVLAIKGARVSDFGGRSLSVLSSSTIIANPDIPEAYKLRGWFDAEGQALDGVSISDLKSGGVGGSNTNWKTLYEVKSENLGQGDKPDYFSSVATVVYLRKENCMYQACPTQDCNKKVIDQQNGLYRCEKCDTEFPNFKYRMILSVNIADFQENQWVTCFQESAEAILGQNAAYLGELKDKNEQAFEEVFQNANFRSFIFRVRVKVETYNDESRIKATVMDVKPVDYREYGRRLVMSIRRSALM
T1 sequence (P15927 whole entry, chain 2 of 3): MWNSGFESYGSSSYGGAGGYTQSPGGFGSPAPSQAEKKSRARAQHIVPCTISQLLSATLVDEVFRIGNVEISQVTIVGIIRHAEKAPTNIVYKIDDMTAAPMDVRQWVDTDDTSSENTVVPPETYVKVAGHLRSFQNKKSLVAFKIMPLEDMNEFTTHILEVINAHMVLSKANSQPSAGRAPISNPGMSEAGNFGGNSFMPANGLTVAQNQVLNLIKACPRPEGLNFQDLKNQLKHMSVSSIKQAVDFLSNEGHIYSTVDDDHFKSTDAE
T1 sequence (P35244 whole entry, chain 3 of 3): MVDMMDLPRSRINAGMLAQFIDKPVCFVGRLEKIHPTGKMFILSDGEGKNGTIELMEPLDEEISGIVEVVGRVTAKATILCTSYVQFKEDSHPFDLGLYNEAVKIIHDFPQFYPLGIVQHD
Chain of EcSSB (P0AGE0 2-178, one chain of several): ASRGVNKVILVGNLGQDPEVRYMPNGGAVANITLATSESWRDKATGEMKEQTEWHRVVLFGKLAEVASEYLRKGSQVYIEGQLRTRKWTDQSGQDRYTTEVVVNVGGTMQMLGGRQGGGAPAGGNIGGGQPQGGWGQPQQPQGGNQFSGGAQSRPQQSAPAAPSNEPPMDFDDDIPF

B1: 3Pc3 30-mer (ssDNA)
DNA: GGAGACCGAAGAGGAAAAGAAGGAGAGAGG
On to B1, for which the binding result (with EcSSB; in data set [1]) was “binds” in each case.

B2: F-dT12 (ssDNA)
DNA: TTTTTTTTTTTT
With B2, the binding result in the data set with RPA p70 DBD-A/B [2] is recorded as “binds”.

B3: 34-mer (ssDNA)
DNA: CTAGAAAGGGGGAAGAAAGGGAAGAGGCCAGAGA
In the case of B3, in data set [3], the binding result is reported as “binds”.

B4: dT12 (ssDNA)
DNA: TTTTTTTTTTTT
In the case of B4, the binding result with RPA p70 DBD-A/B [4] is given as “binds”.

(Values after patent US8980955, “Small molecule inhibitors of replication protein A that also act synergistically with cisplatin” (Indiana University Research and Technology).)
